Measured values published in US20240117030A1 (Pfizer, published 2024).

T1: human IL-4 (human, UniProt P05112 25-153)
T1 sequence (looked up): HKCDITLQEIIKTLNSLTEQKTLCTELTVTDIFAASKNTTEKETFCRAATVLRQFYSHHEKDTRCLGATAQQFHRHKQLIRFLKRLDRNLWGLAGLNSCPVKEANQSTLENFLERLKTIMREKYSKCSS

T2: recombinant human IL-33 (R&D Systems 3625-IL), reduced with DTT (human, UniProt O95760 112-270, limits assumed)
T2 sequence (looked up): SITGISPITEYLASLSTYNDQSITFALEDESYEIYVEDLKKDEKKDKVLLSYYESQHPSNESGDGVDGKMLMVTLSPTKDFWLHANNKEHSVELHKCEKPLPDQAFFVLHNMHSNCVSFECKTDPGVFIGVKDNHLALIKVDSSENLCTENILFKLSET


biological target: T1, human IL-4; assay: cell-based or functional assay

CD23: Fold bioactivity relative to IL4-1285 [fold]	CD23 IC50 [pM]	Binder
1.5	65.2	IL4-1347 (antibody, human IgG1, kappa, V domains shown) VH: QVTLRESGPALVKPTQTLTLTCTFSGFSLSTSGMGVSWIRQPPGKGLEWLAHIYWDDDKRYNPSLKSRLTISKDTSRNQVVLTMTNMDPVDTATYYCARRETVFYWYFDVWGRGTPVTVSS VL: DIQMTQSPSSLSASVGDRVTITCKASQSVDEDGDSYMNWYQQKPGKAPKLLIYAASNLESGVPSRFSGSGSGTDFTLTISSLQPEDFATYYCQQSNEDPPTFGGGTKVEIKR
4.9	19.6	IL4-1352 (antibody, IgG1, V domains shown) VH: QVTLRESGPALVKPTQTLTLTCTFSGFSLSNWGMGVSWIRQPPGKGLEWLAHIYWDDDKRYNPSLKSRLTISKDTSRNQVVLTMTNMDPVDTATYYCARRETVFYWYFDVWGRGTPVTVSS VL: DIQMTQSPSSLSASVGDRVTITCKASQSVDEDGDSYMNWYQQKPGKAPKLLIYAASNLESGVPSRFSGSGSGTDFTLTISSLQPEDFATYYCQQSNEDPPTFGGGTKVEIK
5.4	17.9	IL4-1350 (antibody, IgG1, V domains shown) VH: QVTLRESGPALVKPTQTLTLTCTFSGFSLSTWGSGVSWIRQPPGKGLEWLAHIYWDDDKRYNPSLKSRLTISKDTSRNQVVLTMTNMDPVDTATYYCARRETVFYWYFDVWGRGTPVTVSS VL: DIQMTQSPSSLSASVGDRVTITCKASQSVDEDGDSYMNWYQQKPGKAPKLLIYAASNLESGVPSRFSGSGSGTDFTLTISSLQPEDFATYYCQQSNEDPPTFGGGTKVEIK
2.1	44.9	IL4-1356 (antibody, IgG1, V domains shown) VH: QVTLRESGPALVKPTQTLTLTCTFSGFSLLTFGSGVSWIRQPPGKGLEWLAHIYWDDDKRYNPSLKSRLTISKDTSRNQVVLTMTNMDPVDTATYYCARRETVFYWYFDVWGRGTPVTVSS VL: DIQMTQSPSSLSASVGDRVTITCKASQSVDEDGDSYMNWYQQKPGKAPKLLIYAASNLESGVPSRFSGSGSGTDFTLTISSLQPEDFATYYCQQSNEDPPTFGGGTKVEIK
5.7	16.8	IL4-1358 (antibody, IgG1, V domains shown) VH: QVTLRESGPALVKPTQTLTLTCTFSGFSLSTWGEGVSWIRQPPGKGLEWLAHIYWDDDKRYNPSLKSRLTISKDTSRNQVVLTMTNMDPVDTATYYCARRETVFYWYFDVWGRGTPVTVSS VL: DIQMTQSPSSLSASVGDRVTITCKASQSVDEDGDSYMNWYQQKPGKAPKLLIYAASNLESGVPSRFSGSGSGTDFTLTISSLQPEDFATYYCQQSNEDPPTFGGGTKVEIK

biological target: T2, recombinant human IL-33 (R&D Systems …); assay: cell-based or functional assay

IC50 [nM] versus reduced human IL-33 (R&D), IC50 (AVE) [nM]	Binder
0.014	IL33-0698 (antibody, IgG1, V domains shown) VH: EVQLVESGGGLVQPGGSLRLSCAASGFTFSSYWMYWVRQAPGKGLEWVAAITPNAHAGYYPESVKGRFTISRDNAKNSLYLQMNSLRAEDTAVYYCARGHYYYTSYSLGYWGQGTLVTVSS VL: DIQMTQSPSSLSASVGDRVTITCRASQPISKHLDWYQQKPGKAPKLLIYFTNNLQTGVPSRFSGSGSGTDFTLTISSLQPEDFATYYCFQYKQGWTFGGGTKVEIK
0.01	IL33-0712 (antibody, IgG1, V domains shown) VH: EVQLVESGGGLVQPGGSLRLSCAASGFTFSSYWMYWVRQAPGKGLEWVAAITPNAHAGYYPESVKGRFTISRDNAKNSLYLQMNSLRAEDTAVYYCARGHYYYTSYSLGYWGQGTLVTVSS VL: DIQMTQSPSSLSASVGDRVTITCRASQPISKHLDWYQQKPGKAPKLLIYFTKNLQSGVPSRFSGSGSGTDFTLTISSLQPEDFATYYCFQYNQGWTFGGGTKVEIK
0.013	IL33-0701 (antibody, IgG1, V domains shown) VH: EVQLVESGGGLVQPGGSLRLSCAASGFTFSSYWMYWVRQAPGKGLEWVAAITPNKGVDYYPESVKGRFTISRDNAKNSLYLQMNSLRAEDTAVYYCARGHYYYTSYSLGYWGQGTLVTVSS VL: DIQMTQSPSSLSASVGDRVTITCRASQPISKHLDWYQQKPGKAPKLLIYFTNNLQTGVPSRFSGSGSGTDFTLTISSLQPEDFATYYCFQYKQGWTFGGGTKVEIK
0.013	IL33-0710 (antibody, IgG1, V domains shown) VH: EVQLVESGGGLVQPGGSLRLSCAASGFTFSSYWMYWVRQAPGKGLEWVAAITPNAHAGYYPESVKGRFTISRDNAKNSLYLQMNSLRAEDTAVYYCARGHYYYTSYSLGYWGQGTLVTVSS VL: DIQMTQSPSSLSASVGDRVTITCRASQPISKHLDWYQQKPGKAPKLLIYFTKNLVTGVPSRFSGSGSGTDFTLTISSLQPEDFATYYCFQYNQGWTFGGGTKVEIK
0.007	IL33-0711 (antibody, IgG1, V domains shown) VH: EVQLVESGGGLVQPGGSLRLSCAASGFTFSSYWMYWVRQAPGKGLEWVAAITPNAHAGYYPESVKGRFTISRDNAKNSLYLQMNSLRAEDTAVYYCARGHYYYTSYSLGYWGQGTLVTVSS VL: DIQMTQSPSSLSASVGDRVTITCRASQPISKHLDWYQQKPGKAPKLLIYFTKNLKTGVPSRFSGSGSGTDFTLTISSLQPEDFATYYCFQYNQGWTFGGGTKVEIK

biological target: T1, human IL-4; assay: cell-based or functional assay; remark: another data set of the same source

CD23: Fold bioactivity relative to IL4-0002 [fold]	CD23 IC50 [pM]	Binder
0.9	2.4	IL4-0749 (antibody, human IgG1, kappa, V domains shown) VH: EVTLRESGPALVKPTQTLTLTCTFSGFSLSNFGEGLSWIRQPPGKGLEWLAHIYWDDDKRYNPSLKSRLTISKDTSRNQVVLTMTNMDPVDTATYYCARRETVFYWYFDVWGQGTTVTVSS VL: DIQMTQSPSSLSASVGDRVTITCRASQSVDEEGDSYMNWYQQKPGKAPKLLIYAASNLESGVPSRFSGSGSGTDFTLTISSLQPEDFATYYCQQSNEDPPTFGGGTKVEIKR
0.7	3.2	IL4-1040 (antibody, human IgG1, kappa, V domains shown) VH: EVTLRESGPALVKPTQTLTLTCTFSGFSLSNFGEGLSWIRQPPGKGLEWLAHIYWDDDKRYNPSLKSRLTISKDTSRNQVVLTMTNMDPVDTATYYCARRETVFYWYFDVWGQGTTVTVSS VL: DIQMTQSPSSLSASVGDRVTITCRASQSVDEEGDSYMNWYQQKPGKAPKLLIYAASNLESGVPSRFSGSGSGTDFTLTISSLQPEDFATYYCQQSNKDPPTFGGGTKVEIKR
1.3	1.6	IL4-0037 (antibody, IgG1, V domains shown) VH: EVTLRESGPALVKPTQTLTLTCTFSGFSLSNFGEGLSWIRQPPGKGLEWLAHIYWDDDKRYSTSLKTRLTISKDTSRNQVVLTMTNMDPVDTATYYCARRETVFYWYFDVWGQGTTVTVSS VL: DIQMTQSPSSLSASVGDRVTITCKASQSVDEDGDSYMNWYQQKPGKAPKLLIYAASNLESGVPSRFSGSGSGTDFTLTISSLQPEDFATYYCQQSNEDPPTFGGGTKVEIK
0.2	9.3	IL4-0157 (antibody, IgG1, V domains shown) VH: EVTLRESGPALVKPTQTLTLTCTFSGFSLSNFGEGLSWIRQPPGKGLEWLAHIYWDDDKRYSTSLKTRLTISKDTSRNQVVLTMTNMDPVDTATYYCARRETVFYWYFDVWGQGTTVTVSS VL: DIQMTQSPSSLSASVGDRVTITCRASQSVDEEGDSYMNWYQQKPGKAPKLLIYAASNLESGVPSRFSGSGSGTDFTLTISSLQPEDFATYYCQQSHKDPPTFGGGTKVEIK
1	2.1	IL4-0002 (antibody, human IgG1, kappa) heavy: EVTLRESGPALVKPTQTLTLTCTFSGFSLSNFGEGLSWIRQPPGKGLEWLAHIYWDDDKRYNPSLKSRLTISKDTSRNQVVLTMTNMDPVDTATYYCARRETVFYWYFDVWGQGTTVTVSSASTKGPSVFPLAPSSKSTSGGTAALGCLVKDYFPEPVTVSWNSGALTSGVHTFPAVLQSSGLYSLSSVVTVPSSSLGTQTYICNVNHKPSNTKVDKKVEPKSCDKTHTCPPCPAPEAAGAPSVFLFPPKPKDTLMISRTPEVTCVVVDVSHEDPEVKFNWYVDGVEVHNAKTKPREEQYNSTYRVVSVLTVLHQDWLNGKEYKCKVSNKALPAPIEKTISKAKGQPREPQVYTLPPSREEMTKNQVSLTCLVKGFYPSDIAVEWESNGQPENNYKTTPPVLDSDGSFFLYSKLTVDKSRWQQGNVFSCSVMHEALHNHYTQKSLSLSPGK light: DIQMTQSPSSLSASVGDRVTITCKASQSVDEDGDSYMNWYQQKPGKAPKLLIYAASNLESGVPSRFSGSGSGTDFTLTISSLQPEDFATYYCQQSNEDPPTFGGGTKVEIKRTVAAPSVFIFPPSDEQLKSGTASVVCLLNNFYPREAKVQWKVDNALQSGNSQESVTEQDSKDSTYSLSSTLTLSKADYEKHKVYACEVTHQGLSSPVTKSFNRGEC

biological target: human IL-13 (human, UniProt P35225 35-146); assay: cell-based or functional assay
Sequence (P35225 35-146 limits assumed, form in doubt): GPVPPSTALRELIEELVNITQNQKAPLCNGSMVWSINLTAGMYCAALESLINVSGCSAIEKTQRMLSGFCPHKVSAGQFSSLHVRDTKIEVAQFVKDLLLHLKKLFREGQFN

CD23: Fold bioactivity relative to IL13-0001 [fold]	CD23: Fold bioactivity relative to IL13-1307 [fold]	CD23 IC50 [pM]	pSTAT6: Fold bioactivity relative to IL13-0001 [fold]	pSTAT6: Fold bioactivity relative to IL13-1307 [fold]	pSTAT6 IC50 [pM]	Binder
0.7	21.3	14.4	2.2	3.3	42.7	IL13-1308 (antibody, IgG1, V domains shown) VH: EVQLVESGGGLVQPGGSLRLSCAASGFTFSSYAMSWVRQAPGKGLEWVASISSGDTTYYPDSVKGRFTISRDNAKNSLYLQMNSLRAEDTAVYYCARLDGYYFGFPYWGQGTLVTVSS VL: DIQMTQSPSSLSASVGDRVTITCKASESVDHFGWSLVHWYQQKPGKAPKLLIYRASNLESGVPSRFSGSGSGTDFTLTISSLQPEDFATYYCQQSNEDPWTFGGGTKVEIKR
0.9	26.5	11.5	1.1	1.6	87	IL13-1338 (antibody, IgG1, V domains shown) VH: EVQLVESGGGLVQPGGSLRLSCAASGFTFSSYAMSWVRQAPGKGLEWVASISSGDTTYYPDSVKGRFTISRDNAKNSLYLQMNSLRAEDTAVYYCARNEGYYFGLTLWGQGTLVTVSS VL: DIQMTQSPSSLSASVGDRVTITCKASESVDHSGSSLMHWYQQKPGKAPKLLIYRASNLESGVPSRFSGSGSGTDFTLTISSLQPEDFATYYCQQSNEDPWTFGGGTKVEIK
